For one substance, aggregate-containing HEK293 biosensor cells (punctate fluorescence after 48 h) on treatment with preformed heparin-induced tauP301L fibrils results are on record in patent US20240116984A1, “MODIFIED PEPTIDES FOR THE INHIBITION OF ABNORMAL TAU ACCUMULATION” (University of Notre Dame du Lac, priority 2021, published 2024).

This experiment has as its target tau-RD (P301L/V337M)-YFP, stably expressed in HEK293 biosensor cells (UniProt P10636). Kind of experiment: cell-based or functional assay.

Chain of tau-RD (P301L/V337M)-YFP, stably expressed in HEK293 biosensor cells (P10636 561-689 P618L/V654M): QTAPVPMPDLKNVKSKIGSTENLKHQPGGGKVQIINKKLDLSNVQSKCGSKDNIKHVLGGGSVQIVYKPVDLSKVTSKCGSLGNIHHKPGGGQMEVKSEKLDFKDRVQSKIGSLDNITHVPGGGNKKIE

“Human tauP301L (0N4R), recombinant, N-terminal His tag (from UniProt P10636 2-758)” yielded an aggregate-containing HEK293 biosensor cells (punctate fluorescence after 48 h) on treatment with preformed heparin-induced tauP301L fibrils of 38%.
